The source of these data is patent US20240327522A1 (Genentech, published 2024).

One experiment has as its target T1, human αvβ1 (human, UniProt P06756 31-992; P05556 21-728).
T1 construct: Counter-screen integrin; construct not described; also called hu.aVb1; αVP1
Put plainly: SPR binding assay, sample hu.aVb1,3,5,6. Background: Surface plasmon resonance follows binding to a sensor surface in real time, without labels.

The target of the next experiment is T2, human αvβ3 (human, UniProt P06756 31-992; P05106 27-718).
T2 construct: Counter-screen integrin; construct not described; also called hu.aVb3; αV03
The experiment in a line: SPR binding assay, sample hu.aVb1,3,5,6.

In a further experiment the target is T3, human αvβ5 (human, UniProt P06756 31-992; P18084 24-719).
T3 construct: Counter-screen integrin; construct not described; also called hu.aVb5; αV05
Put plainly: SPR binding assay, sample hu.aVb1,3,5,6.

In another experiment the target is T4, human αvβ6 (human, UniProt P06756 31-992; P18564 22-709).
T4 construct: Counter-screen integrin; construct not described; also called hu.aVb6; αV06
Put plainly: SPR binding assay, sample hu.aVb1,3,5,6.

In experiment [1] the target is T5, recombinant human αvβ8 protein (PARS-17102) (human).
T5 construct: also called hu.aVb8.17102; not shown: C-terminal acid/basic coils and any purification tags
T5 alpha: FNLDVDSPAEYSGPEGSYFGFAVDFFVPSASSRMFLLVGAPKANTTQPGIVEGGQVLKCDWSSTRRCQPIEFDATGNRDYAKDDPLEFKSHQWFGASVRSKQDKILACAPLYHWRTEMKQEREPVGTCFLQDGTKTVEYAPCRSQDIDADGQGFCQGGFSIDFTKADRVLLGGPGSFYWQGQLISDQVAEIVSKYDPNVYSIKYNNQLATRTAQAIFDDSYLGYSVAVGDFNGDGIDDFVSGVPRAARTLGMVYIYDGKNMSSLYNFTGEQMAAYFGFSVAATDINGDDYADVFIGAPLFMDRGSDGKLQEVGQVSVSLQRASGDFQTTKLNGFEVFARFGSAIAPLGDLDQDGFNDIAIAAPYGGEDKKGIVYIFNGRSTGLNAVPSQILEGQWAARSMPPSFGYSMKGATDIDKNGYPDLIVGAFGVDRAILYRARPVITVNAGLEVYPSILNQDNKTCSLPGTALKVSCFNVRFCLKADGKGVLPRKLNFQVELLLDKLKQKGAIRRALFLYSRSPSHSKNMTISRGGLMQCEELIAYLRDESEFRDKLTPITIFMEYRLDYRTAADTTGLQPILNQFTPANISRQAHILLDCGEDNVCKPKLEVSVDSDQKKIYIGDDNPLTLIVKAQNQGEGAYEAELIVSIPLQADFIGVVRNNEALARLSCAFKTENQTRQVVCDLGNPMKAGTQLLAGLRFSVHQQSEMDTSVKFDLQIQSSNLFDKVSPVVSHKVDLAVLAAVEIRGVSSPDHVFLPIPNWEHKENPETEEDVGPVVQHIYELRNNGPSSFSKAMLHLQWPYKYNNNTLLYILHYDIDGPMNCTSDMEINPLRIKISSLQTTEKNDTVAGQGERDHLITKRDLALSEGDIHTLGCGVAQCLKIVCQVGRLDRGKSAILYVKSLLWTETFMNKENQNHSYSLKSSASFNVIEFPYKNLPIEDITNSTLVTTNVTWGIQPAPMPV
T5 beta: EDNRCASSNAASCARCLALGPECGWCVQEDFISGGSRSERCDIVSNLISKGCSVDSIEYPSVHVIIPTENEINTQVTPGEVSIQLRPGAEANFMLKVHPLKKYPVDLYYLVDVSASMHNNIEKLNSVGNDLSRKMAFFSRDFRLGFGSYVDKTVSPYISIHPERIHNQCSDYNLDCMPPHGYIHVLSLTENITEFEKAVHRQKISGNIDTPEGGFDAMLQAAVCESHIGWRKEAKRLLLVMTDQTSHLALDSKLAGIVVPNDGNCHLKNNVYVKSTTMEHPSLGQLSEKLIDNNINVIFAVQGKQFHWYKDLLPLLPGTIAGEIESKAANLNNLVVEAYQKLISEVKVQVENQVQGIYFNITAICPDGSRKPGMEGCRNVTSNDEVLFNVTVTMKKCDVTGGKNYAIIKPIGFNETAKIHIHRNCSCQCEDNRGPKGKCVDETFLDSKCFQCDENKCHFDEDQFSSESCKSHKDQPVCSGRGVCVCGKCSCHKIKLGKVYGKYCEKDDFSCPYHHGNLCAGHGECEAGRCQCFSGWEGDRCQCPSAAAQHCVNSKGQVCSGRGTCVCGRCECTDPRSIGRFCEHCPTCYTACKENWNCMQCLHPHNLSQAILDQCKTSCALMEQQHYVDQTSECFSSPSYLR
Put plainly: SPR binding assay, experiment 2, antibody as ligand, aVb8 as sample.

Experiment [2] addresses T6, recombinant mouse αvβ8 protein (PARS-17103) (murine, UniProt P43406 31-988; Q0VBD0 43-681, limits assumed).
T6 construct: Made in house; also called mu.aVb8.17103
Described as above.

A further experiment deals with T7, cyno.aVb8.13650 (cynomolgus, UniProt A0A2K5WCD3 31-992; G7P0S0 43-684).
T7 construct: Carries another lot/construct number than cyno.aVb8-19393; kept apart; also called cynomolgus αvβ8
The description is as above.

T6 sequence (P43406 31-988 limits assumed, chain 1 of 2): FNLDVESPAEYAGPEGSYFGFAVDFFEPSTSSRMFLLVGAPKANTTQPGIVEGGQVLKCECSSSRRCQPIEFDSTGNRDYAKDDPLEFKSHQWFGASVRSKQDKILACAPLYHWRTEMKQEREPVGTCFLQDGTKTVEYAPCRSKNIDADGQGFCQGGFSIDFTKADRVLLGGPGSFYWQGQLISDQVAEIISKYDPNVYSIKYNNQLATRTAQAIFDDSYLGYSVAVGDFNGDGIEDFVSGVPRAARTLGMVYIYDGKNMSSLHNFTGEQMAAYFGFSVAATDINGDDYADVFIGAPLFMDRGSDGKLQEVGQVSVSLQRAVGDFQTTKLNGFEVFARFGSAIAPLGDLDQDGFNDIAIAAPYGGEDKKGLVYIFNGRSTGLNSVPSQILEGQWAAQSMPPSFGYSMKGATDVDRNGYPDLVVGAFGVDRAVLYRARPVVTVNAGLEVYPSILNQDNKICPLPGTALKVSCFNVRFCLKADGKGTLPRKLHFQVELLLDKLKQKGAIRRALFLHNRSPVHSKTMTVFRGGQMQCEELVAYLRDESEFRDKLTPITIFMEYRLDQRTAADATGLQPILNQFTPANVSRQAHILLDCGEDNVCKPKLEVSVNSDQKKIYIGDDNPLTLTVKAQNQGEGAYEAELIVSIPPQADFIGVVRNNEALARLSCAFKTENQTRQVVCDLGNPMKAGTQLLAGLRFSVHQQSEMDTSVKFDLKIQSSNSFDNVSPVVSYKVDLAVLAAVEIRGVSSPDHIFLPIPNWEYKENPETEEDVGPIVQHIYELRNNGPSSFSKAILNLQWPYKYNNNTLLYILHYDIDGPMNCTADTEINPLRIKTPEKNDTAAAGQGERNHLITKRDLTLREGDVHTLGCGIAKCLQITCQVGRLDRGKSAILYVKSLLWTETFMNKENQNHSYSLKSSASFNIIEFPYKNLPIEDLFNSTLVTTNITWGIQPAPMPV
T6 sequence (Q0VBD0 43-681 limits assumed, chain 2 of 2): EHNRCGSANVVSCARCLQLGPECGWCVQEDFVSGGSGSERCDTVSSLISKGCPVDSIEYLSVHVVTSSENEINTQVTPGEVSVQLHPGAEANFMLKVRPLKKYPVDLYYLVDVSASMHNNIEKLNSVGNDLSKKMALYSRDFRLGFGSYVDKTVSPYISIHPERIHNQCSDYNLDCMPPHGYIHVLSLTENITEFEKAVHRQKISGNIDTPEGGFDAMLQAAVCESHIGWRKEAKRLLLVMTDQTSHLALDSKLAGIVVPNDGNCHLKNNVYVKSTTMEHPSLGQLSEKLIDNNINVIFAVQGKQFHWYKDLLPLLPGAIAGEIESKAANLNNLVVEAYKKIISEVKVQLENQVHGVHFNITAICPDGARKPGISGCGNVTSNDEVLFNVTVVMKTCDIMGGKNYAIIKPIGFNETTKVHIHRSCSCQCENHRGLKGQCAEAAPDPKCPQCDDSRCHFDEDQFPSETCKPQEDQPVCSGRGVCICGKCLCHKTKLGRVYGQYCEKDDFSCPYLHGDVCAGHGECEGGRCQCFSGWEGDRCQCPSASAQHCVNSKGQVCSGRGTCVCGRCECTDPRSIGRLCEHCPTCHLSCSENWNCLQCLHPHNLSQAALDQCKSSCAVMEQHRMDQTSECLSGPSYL
T4 sequence (P18564 22-709 limits assumed, one chain of several): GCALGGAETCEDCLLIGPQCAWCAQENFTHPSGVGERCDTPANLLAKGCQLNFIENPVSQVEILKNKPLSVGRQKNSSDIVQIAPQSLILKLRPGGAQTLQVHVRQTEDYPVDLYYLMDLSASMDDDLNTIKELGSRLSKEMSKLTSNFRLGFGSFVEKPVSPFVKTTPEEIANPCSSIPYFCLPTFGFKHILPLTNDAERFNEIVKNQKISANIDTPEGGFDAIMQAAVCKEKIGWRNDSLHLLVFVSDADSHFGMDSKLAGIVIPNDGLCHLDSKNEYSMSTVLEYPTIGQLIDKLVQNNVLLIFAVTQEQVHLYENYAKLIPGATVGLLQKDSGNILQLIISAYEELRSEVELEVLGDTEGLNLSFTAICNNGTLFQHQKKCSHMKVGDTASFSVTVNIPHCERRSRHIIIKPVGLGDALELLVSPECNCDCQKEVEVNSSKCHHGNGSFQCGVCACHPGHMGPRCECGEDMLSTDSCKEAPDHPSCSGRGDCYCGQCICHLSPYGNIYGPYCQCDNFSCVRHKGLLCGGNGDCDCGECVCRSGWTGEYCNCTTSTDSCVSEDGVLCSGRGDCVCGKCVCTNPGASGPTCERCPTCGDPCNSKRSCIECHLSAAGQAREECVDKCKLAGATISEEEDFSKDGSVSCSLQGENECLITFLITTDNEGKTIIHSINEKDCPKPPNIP
T3 sequence (P18084 24-719 limits assumed, one chain of several): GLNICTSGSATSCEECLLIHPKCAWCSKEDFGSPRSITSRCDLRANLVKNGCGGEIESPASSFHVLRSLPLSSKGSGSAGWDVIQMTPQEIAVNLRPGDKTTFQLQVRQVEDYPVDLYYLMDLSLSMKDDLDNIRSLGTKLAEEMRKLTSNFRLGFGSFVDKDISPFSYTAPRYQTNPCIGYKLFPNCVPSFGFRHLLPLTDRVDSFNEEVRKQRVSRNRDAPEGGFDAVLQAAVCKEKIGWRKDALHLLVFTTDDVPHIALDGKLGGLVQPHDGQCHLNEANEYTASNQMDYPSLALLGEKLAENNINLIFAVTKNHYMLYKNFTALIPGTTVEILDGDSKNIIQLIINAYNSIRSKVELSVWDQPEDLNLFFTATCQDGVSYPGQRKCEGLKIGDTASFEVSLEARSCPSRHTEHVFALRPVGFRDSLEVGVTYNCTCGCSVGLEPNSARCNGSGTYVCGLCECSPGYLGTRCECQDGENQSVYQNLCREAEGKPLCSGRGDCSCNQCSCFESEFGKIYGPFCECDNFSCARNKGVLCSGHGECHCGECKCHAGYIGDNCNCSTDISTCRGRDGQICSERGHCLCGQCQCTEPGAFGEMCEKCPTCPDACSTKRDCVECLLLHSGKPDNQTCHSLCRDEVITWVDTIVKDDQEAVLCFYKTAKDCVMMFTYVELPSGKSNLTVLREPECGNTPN
T1 sequence (P05556 21-728 limits assumed, one chain of several): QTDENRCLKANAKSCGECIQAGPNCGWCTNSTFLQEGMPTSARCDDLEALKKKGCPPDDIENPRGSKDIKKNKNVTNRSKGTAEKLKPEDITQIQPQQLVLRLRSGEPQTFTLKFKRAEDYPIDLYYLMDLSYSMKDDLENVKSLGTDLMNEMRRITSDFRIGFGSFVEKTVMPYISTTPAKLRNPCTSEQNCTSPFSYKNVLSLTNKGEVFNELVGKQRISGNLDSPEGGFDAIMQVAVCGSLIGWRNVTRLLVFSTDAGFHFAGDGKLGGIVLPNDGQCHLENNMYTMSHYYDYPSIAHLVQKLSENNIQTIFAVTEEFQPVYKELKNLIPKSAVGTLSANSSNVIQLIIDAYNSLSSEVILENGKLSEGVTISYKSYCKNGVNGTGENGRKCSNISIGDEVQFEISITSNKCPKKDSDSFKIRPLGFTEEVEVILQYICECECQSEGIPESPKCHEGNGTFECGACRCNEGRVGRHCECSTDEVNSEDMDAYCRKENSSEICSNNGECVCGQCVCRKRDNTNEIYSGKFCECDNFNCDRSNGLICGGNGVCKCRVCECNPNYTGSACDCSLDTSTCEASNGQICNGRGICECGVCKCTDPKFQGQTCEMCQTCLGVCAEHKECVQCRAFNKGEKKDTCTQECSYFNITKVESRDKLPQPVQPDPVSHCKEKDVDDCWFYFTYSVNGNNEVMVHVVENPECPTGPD
T2 sequence (P05106 27-718 limits assumed, chain 2 of 2, one chain of several): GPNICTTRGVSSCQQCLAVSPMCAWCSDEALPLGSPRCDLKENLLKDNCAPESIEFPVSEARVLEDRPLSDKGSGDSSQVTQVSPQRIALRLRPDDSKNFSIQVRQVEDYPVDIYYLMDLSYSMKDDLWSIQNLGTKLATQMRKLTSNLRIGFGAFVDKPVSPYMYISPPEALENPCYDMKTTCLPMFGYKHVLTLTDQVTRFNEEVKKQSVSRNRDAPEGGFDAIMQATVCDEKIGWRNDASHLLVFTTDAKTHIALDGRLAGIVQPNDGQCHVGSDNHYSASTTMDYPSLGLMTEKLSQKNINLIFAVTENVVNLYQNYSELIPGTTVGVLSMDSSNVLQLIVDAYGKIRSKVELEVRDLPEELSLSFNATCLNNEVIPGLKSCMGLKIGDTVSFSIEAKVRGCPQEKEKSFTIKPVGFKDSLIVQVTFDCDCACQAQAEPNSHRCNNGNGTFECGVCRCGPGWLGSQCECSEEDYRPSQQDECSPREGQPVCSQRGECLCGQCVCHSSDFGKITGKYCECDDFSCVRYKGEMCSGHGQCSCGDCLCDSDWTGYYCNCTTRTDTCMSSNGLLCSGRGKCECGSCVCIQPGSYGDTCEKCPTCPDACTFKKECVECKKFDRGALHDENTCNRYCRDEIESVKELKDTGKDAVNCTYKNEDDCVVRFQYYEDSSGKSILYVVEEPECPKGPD

B1: Hu.aVb8-65.H15L2 (aVb8-65.H15L2.hIgG1.LALAPG) (antibody, V domains shown)
VH: EVQLLESGGGLVQPGGSLRLSCAASGIDLSNYAMIWVRQAPGKGLEWVGIISSSDRIWYASWVKGRFTISRDNSKNTLYLQMNSLRAEDTAVYYCSRSVSNSYFDGWNLWGQGTLVTVSS
VL: DIQMTQSPSSVSASVGDRVTITCQASENINSLLAWYQQKPGKAPKLLIYRASTLASGVPSRFSGSGSGTDFTLTISSLQPEDFATYYCQSNYGFTGSGAFFYGFGQGTKVEIKR
notes: Human IgG1 LALAPG; also called PARS-20475-65 (IH) aVb8-65.H15L2.hIgG1.LALAPG; humanized αvβ8-65
As a reminder, the Kd is the free concentration of one partner at which half of the binding sites on the other are occupied at equilibrium, for simple one-to-one binding. By koff is commonly meant the rate constant with which the complex falls apart. In general, kon refers to the rate constant with which the complex forms. With B1, the binding result with human αvβ1, in the experiment with human αvβ3, with human αvβ5 and in the experiment with human αvβ6 was “no binding” throughout. In addition, the Kd in experiment [1] was 1.04 nM; in experiment [2], 1.23 nM; with cyno.aVb8.13650, 2.41 nM. Further, the values for the koff (in experiment [1]; in experiment [2]; in the experiment with cyno.aVb8.13650) were 0.000181 s⁻¹, 0.000152 s⁻¹ and 0.000151 s⁻¹, respectively. The values for the kon (in experiment [1]; in experiment [2]; in the experiment with cyno.aVb8.13650) were 174000 M⁻¹ s⁻¹, 123000 M⁻¹ s⁻¹ and 62700 M⁻¹ s⁻¹, respectively.
